The values below come from patent US20110009310A1 (CELECURE, published 2011).

The target of assay [1] is VEGFR1 (isolated recombinant receptor) (UniProt P17948 27-756, limits assumed). The assay is described as follows: modified ELISA; CD44-3MUT coated on wells, recombinant VEGFR1 added, detected with anti-VEGFR antibody. The method, then:
(§1) Modified ELISA tests to evaluate the binding of VEGFR2 (panel A) and VEGFR1 (panel B) to immobilized CD44-3MUT. […] Nonspecific binding was blocked with 2.5% non-fat dry milk solution. VEGFR1 and VEGFR2 were added into the coated wells and incubated for 1 h at RT. VEGFR binding was detected with anti-VEGFR antibodies
(§2) We have developed a modified ELISA test (to detect CD44-3MUT binding specificity to isolated recombinant receptors VEGFR1 and VEGFR2).
(In an ELISA, binding on a coated surface is turned into a signal by an enzyme label.)

Assay [2] deals with VEGFR2 (isolated recombinant receptor) (UniProt P35968 20-764, limits assumed). As to the kind of experiment: modified ELISA; CD44-3MUT coated on wells, recombinant VEGFR2 added, detected with anti-VEGFR antibody. The method, then:
as §1, §2

Chain of VEGFR2 (isolated recombinant receptor) (P35968 20-764 limits assumed): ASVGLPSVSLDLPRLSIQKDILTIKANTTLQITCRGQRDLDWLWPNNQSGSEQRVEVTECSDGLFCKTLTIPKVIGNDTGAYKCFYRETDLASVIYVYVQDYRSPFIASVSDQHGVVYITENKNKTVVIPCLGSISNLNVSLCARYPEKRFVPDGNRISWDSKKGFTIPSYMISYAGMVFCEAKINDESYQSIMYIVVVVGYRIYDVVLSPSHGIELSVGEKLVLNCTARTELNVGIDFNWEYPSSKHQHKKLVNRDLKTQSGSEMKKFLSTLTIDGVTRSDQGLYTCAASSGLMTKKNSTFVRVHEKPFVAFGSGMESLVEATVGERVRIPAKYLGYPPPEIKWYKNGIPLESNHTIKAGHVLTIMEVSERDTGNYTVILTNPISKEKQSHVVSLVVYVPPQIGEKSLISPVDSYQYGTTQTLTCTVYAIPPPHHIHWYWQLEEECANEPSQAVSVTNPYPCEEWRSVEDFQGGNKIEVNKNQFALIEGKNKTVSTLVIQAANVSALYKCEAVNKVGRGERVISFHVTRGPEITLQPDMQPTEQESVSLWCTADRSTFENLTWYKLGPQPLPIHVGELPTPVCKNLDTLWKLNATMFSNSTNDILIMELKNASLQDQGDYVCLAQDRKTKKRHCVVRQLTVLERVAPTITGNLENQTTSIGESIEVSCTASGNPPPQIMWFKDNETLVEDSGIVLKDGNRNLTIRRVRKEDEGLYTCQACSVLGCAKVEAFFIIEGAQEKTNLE
Chain of VEGFR1 (isolated recombinant receptor) (P17948 27-756 limits assumed): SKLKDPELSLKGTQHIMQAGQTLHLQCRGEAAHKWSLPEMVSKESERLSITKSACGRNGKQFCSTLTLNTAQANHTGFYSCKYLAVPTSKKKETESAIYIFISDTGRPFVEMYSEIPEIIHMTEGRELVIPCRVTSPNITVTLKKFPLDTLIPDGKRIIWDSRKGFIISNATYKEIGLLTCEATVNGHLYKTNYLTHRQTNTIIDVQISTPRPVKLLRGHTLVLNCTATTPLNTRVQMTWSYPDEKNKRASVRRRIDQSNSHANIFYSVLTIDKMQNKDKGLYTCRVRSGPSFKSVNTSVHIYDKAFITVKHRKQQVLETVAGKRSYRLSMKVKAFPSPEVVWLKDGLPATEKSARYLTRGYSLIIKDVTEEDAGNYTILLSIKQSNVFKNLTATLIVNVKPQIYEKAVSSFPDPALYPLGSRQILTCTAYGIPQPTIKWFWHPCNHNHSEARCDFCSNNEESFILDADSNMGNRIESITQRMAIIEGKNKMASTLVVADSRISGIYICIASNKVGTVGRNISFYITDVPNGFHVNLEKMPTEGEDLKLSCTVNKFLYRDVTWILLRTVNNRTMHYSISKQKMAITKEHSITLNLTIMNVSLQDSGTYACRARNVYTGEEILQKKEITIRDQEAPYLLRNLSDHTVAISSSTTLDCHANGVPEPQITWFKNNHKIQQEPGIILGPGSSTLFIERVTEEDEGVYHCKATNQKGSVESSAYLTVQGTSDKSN

B1: CD44HABD^R41AR78SY79S (non-HA-binding triple mutant of the human CD44 hyaluronic acid binding domain) (other)
chain: QIDLNMTCRFAGVFHVEKNGAYSISRTEAADLCKAFNSTLPTMAQMEKALSIGFETCSSGFIEGHVVIPRIHPNSICAANNTGVYILTSNTSQYDTYCFNASAPPEEDCTSV
notes: Made in E. coli, non-glycosylated; also called CD44-3MUT; 3MUT
Consider B1, for which the binding result in assay [1] and in assay [2] was “no binding” each time.
